As a reminder, the Kd is the free concentration of one partner at which half of the binding sites on the other are occupied at equilibrium, for simple one-to-one binding. Low readings indicate tighter binding, high ones weaker binding.

No end group written: not given here. MBP = not defined here

Consider 37 molecules from PMC7525811 (Molecular Biology of the Cell, 2020).

T1 sequence (O14980 whole entry): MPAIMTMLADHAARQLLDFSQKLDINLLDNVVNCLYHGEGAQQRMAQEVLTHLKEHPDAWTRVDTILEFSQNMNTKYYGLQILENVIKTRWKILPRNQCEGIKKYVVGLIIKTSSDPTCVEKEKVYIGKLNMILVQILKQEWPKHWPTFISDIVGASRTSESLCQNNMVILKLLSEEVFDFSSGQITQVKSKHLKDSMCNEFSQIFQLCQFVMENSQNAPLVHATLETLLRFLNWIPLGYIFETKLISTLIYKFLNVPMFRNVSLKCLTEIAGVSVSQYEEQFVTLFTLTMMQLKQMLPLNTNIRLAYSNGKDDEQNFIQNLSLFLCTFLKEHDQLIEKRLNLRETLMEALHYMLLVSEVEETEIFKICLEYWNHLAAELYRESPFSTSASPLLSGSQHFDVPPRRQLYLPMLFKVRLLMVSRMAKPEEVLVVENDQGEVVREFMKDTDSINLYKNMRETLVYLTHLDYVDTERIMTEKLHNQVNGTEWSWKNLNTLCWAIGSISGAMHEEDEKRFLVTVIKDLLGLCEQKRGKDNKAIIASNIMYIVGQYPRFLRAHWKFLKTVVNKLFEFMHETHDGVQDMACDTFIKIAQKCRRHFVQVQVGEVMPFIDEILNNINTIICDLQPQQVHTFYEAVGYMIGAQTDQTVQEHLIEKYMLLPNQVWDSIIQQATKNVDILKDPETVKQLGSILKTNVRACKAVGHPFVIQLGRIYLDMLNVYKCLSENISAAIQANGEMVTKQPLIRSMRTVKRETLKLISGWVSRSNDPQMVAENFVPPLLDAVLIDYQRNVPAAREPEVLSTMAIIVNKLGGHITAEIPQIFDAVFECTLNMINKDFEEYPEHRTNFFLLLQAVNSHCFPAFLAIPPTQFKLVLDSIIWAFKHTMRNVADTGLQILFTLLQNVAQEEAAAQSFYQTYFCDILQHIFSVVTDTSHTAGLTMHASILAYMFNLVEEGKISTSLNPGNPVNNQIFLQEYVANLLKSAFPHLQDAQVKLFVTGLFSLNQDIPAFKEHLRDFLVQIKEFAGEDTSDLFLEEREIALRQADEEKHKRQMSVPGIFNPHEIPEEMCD
T2 sequence (O14980 whole entry E571K): as the sequence (O14980 whole entry) above, with E571K counted along it

One experiment has as its target full-length human CRM1(E571K) (human) (UniProt O14980). Nature of the experiment: differential photobleaching.
Details: not given
Molecule MBP-FMRP1b^NES (peptide) had a dissociation constant Kd of 9 µM.

For the next experiment, the target named is full-length human CRM1 (WT) (Homo sapiens, UniProt O14980).
full-length human CRM1 (WT), sequence (O14980 whole entry, other chains not shown): as the sequence (O14980 whole entry) above
Assay: not given
It is filed as binding. As to conditions: from photobleaching Kds.
Take “Mek1^NES(E41A) ({MBP}-TNLEALQKKLEELALDEQ; reading uncertain)”: the “tighter binding to WT CRM1 than the WT Mek1^NES” value came to 14 fold.

The target in the next experiment is CRM1(E571K) (Homo sapiens, UniProt O14980, E571K).
CRM1(E571K), sequence (O14980 whole entry E571K, other chains not shown): as the sequence (O14980 whole entry) above, with E571K counted along it
Assay: not given
In kind it is binding. Particulars: from photobleaching Kds.
With RELDELMASLSDFKFMA [Paxillin^NES], the “weaker binding to CRM1(E571K) than to WT CRM1” value is 4–10 fold.

In the case of REELWKKLEELKLKK [PP2A B56α^NES], the “weaker binding to CRM1(E571K) than to WT CRM1” value is on record as 4–10 fold.

On to TNLEALQKKLEELELDEQ [Mek1^NES], for which the “tighter (stronger) binding to CRM1(E571K) than to WT CRM1” value was found to be 14 fold.

The same experiment, now with this note: ratio of Kds from differential photobleaching assays.
For “Paxillin^NES(K277A) ({MBP}-RELDELMASLSDFAFMA; reading uncertain)”, the “Kd,E571K/Kd,WT” value is 2.1.

Consider “SVEEVEAGLKGLKVDQQVK [eIF4E-transporter (4E-T^NES)]”, for which the “Kd,E571K/Kd,WT” value was 10.

As for EQMVKELQEIRLEPQ [Iκβα^NES], the “Kd,E571K/Kd,WT” value was found to be 0.95.

LQLPPLERLTLDC [HIV Rev^NES]: the “Kd,E571K/Kd,WT” value was determined as 2.3.

Take SVPEVEALLARLRAL [mDia2^NES]: the “Kd,E571K/Kd,WT” value is 0.88.

Regarding SSLQELVQQFEALPGDLV [X11L2^NES], the “Kd,E571K/Kd,WT” value was determined as 0.87.

As for LKEVDQLRALERLQID [FMRP1b^NES], the “Kd,E571K/Kd,WT” value was found to be 3.0.

Regarding MEELSQALASSFSVSQDLNS [Snupn1^NES], the “Kd,E571K/Kd,WT” value came to 1.8.

Take RSFEMTEFNQALEEIKG [hRio2^NES]: the “Kd,E571K/Kd,WT” value was 0.79.

As to YERVVSPGIDLSGLTLQ [Smad4^NES], the “Kd,E571K/Kd,WT” value is reported as 2.8.

As for SLVLLPFDDLKISG [Iκβε^NES], the “Kd,E571K/Kd,WT” value was 3.3.

In the case of RELDELMASLSDFKFMA [Paxillin^NES], the “Kd,E571K/Kd,WT” value stood at 4.6.

Take REELWKKLEELKLKK [PP2A B56α^NES]: the “Kd,E571K/Kd,WT” value was 8.6.

With TNLEALQKKLEELELDEQ [Mek1^NES], the “Kd,E571K/Kd,WT” value turned out to be 0.071.

For RTFDMHSLESSIDIMR [Cpeb4^NES], the “Kd,E571K/Kd,WT” value was found to be 3.2.

On to NFEILMKLKESLELMELVP [P73^NES], for which the “Kd,E571K/Kd,WT” value was determined as 0.75.

In a further experiment the test system is HEK 293 cells. Nature of the experiment: Immunostaining and confocal microscopy of endogenous RPS2 with and without LMB. It is filed as cell-based, human. Particulars: anti-RPS2 immunostaining, presence vs absence of LMB.
`CCC(=C/[C@H](C)C/C=C/C(C)=C/[C@@H](C)C(=O)[C@@H](C)[C@H](O)[C@@H](C)C/C(C)=C/C(=O)O)/C=C/[C@@H]1OC(=O)C=C[C@@H]1C` [leptomycin B]: the “subcellular localization of endogenous RPS2 upon CRM1 inhibition” value is reported as “not affected”.

Another experiment concerns the target T1, full-length human CRM1 (wild type) (human, UniProt O14980 1-1071). The experiment can be described thus: differential photobleaching.
Details: not given
As to TNLEALQKKLEELELDEQ [MBP-Mek1^NES], the binding result is reported as “binds”.

Take YERVVSPGIDLSGLTLQ [MBP-Smad4^NES]: the binding result was “binds”.

Another experiment deals with T1, full-length human CRM1 (wild type). Nature of the experiment: differential photobleaching.
Details: not given
This is another data set of the same source.
In turn, {MBP}-SLVLLPFDDLKISG (reading uncertain) [MBP-Iκβε^NES] registered a Kd of 3.6 µM.

Regarding REELWKKLEELKLKK [MBP-PP2A B56α^NES], the affinity, expressed as Kd, was 4.4 µM.

In the case of {MBP}-EQMVKELQEIRLEPQ (reading uncertain) [MBP-Iκβα^NES], binding was characterised by a dissociation constant (Kd) of 22 µM.

In turn, SVEEVEAGLKGLKVDQQVK [MBP-eIF4E-transporter NES (4E-T^NES)] yielded a dissociation constant (Kd) of 1.4 µM.

Another experiment addresses T2, full-length human CRM1(E571K) (human, UniProt O14980 1-1071, E571K). The experiment can be described thus: differential photobleaching.
Details: not given
TNLEALQKKLEELELDEQ [MBP-Mek1^NES] displayed a Kd of 0.005 µM. That is a single-digit nanomolar value.

RTFDMHSLESSIDIMR [MBP-Cpeb4^NES] had an equilibrium dissociation constant (Kd) of 1.9 µM.

In turn, SSLQELVQQFEALPGDLV [MBP-X11L2^NES] showed a Kd of 1.3 µM.

NFEILMKLKESLELMELVP [MBP-P73^NES] had a Kd of 1.5 µM.

In turn, LQLPPLERLTLDC [MBP-HIV Rev^NES] displayed a Kd of 4.1 µM.

Turning to {MBP}-SLVLLPFDDLKISG (reading uncertain) [MBP-Iκβε^NES], binding was characterised by a dissociation constant (Kd) of 12 µM.

Take SVPEVEALLARLRAL [MBP-mDia2^NES]: the affinity, expressed as Kd, was 1.5 µM.

With RSFEMTEFNQALEEIKG [MBP-hRio2^NES], the dissociation constant Kd stood at 1.9 µM.

Turning to YERVVSPGIDLSGLTLQ [MBP-Smad4^NES], binding was characterised by a dissociation constant (Kd) of 13 µM.

For RELDELMASLSDFKFMA [MBP-Paxillin^NES], the Kd is 3.1 µM.

Molecule PLPVLGLGGLRISS [MBP-Dusp6^NES] displayed a Kd of 14 µM.

For the molecule MEELSQALASSFSVSQDLNS [MBP-Snupn1^NES], binding was characterised by a dissociation constant (Kd) of 21 µM. This Kd is about 1.5-fold higher than that of the molecule before.

For REELWKKLEELKLKK [MBP-PP2A B56α^NES], binding was characterised by a dissociation constant (Kd) of 38 µM.

Turning to {MBP}-EQMVKELQEIRLEPQ (reading uncertain) [MBP-Iκβα^NES], binding was characterised by a dissociation constant (Kd) of 21 µM.

As to SVEEVEAGLKGLKVDQQVK [MBP-eIF4E-transporter NES (4E-T^NES)], the Kd amounted to 14 µM.

In the next experiment the target is T1, full-length human CRM1 (wild type).
Assay: not given
Details: not given
Molecule TNLEALQKKLEELALDEQ [MBP-Mek1^NES(E41A)] gave an equilibrium dissociation constant (Kd) of 5 nM.

The target in the next experiment is T2, full-length human CRM1(E571K).
Assay: not given
Details: not given
Molecule TNLEALQKKLEELALDEQ [MBP-Mek1^NES(E41A)] registered a dissociation constant Kd of 6 nM.

For the molecule NSNELALKLAGLDIDE [MBP-PKI^NESDE], the “fold tighter than to WT CRM1” value came out at 3 fold.

The target in a further experiment is full-length human CRM1(E571K) (human) (UniProt O14980). Nature of the experiment: fluorescence polarisation.
full-length human CRM1(E571K) (human), sequence (O14980 whole entry E571K): as the sequence (O14980 whole entry) above, with E571K counted along it
Details: not given
A general note: Polarisation of emitted light reports the rotation of a fluorescent probe.
“MBP-RPS2^NES (putative NES of 40S ribosomal protein S2) (peptide)”: the fold weaker than to WT CRM1 came out at 16 fold.
